Data taken from publication PMC4191427, “Molecular mechanisms of two-component system RhpRS regulating type III secretion system in Pseudomonas syringae” (Nucleic Acids Research, 2014).
Positions count from the first letter of the chain named.

Columns and labels:
[1] = tested on: T1, RhpRpsph (Pseudomonas syringae pv. phaseolicola), ORF:976030cf; experiment: EMSA; conditions: 10 mM Tris-HCl pH 7.4, 50 mM KCl, 5 mM MgCl2, 10% glycerol, 3 ug/ml sheared salmon sperm DNA, room temperature
T1 sequence: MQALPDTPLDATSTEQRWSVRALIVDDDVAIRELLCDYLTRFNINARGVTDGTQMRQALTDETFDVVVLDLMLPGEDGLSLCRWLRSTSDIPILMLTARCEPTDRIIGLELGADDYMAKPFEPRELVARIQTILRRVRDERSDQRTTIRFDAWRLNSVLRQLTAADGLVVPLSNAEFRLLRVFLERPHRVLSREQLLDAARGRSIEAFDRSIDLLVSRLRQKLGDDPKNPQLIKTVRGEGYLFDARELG

[2] = target: T2, RhpR (Pseudomonas syringae, UniProt A0ABY1U8E6); experiment: […] phosphorylation, autoradiography; assay type: biochemical; conditions: phosphodonor; covalent phosphorylation (putative site Asp70); labelled compound; 37 °C, 30 min
T2 construct: gene virG; full-length, N-terminal His6 tag (pMCSG19, MBP cut off in vivo), E. coli BL21 star (DE3)

[3] = tested on: RhpR (Pseudomonas syringae pv. tomato DC3000?); experiment: EMSA; conditions: 10 mM Tris-HCl pH 7.4, 50 mM KCl, 5 mM MgCl2, 10% glycerol, 3 ug/ml sheared salmon sperm DNA, room temperature
[4] = tested on: T3, RhpR (Pseudomonas syringae pv. tomato DC3000?), ORF:d96f1ca2; experiment: EMSA; conditions: 10 mM Tris-HCl pH 7.4, 50 mM KCl, 5 mM MgCl2, 10% glycerol, 3 ug/ml sheared salmon sperm DNA, room temperature
T3 sequence: T1 sequence with D6E, T7N, P8T, E15D, T53S

Compound | binding [1] | further results
TTCGATACTTAGCGGATCAGGCATTATCGCATCGCCGCAAAAAATAATCCTGCCGCCGGGAGGAGAGCACACGGTTAGATTGCGCTCGTTGTCGAGTCCAAATAAAGAGTTGTTATATCGTGTATATGTCGAGACTGTAGCTGCGAATACGGATGAAGATCATGTGGTTACAGAGGGGGGTGGCAGCGTTGGTATTAGTCTAACATGGGGG (double strand) [PSPPH0775] | no binding | 
CC(=O)OP(=O)(O)O [acetyl phosphate] |  | 32P phosphorylation, autoradiography [2]: The phosphorylated RhpR was readily detected
rhpR promoter EMSA probe |  | binding signal (fold affinity vs unphosphorylated RhpR) [3]: 8; binding signal ([3]; scale: fold affinity vs unphosphorylated RhpR): 8
CGCCTGGCGAATGTCTTATGGCAGCTTATTCGCAGCAGCAACTCATAGGCATCGGGGGGCTATCGGTCGATCCGTATATCAAAACTGATACCGCAAGGCTAAGGCGTGTGTACGTAACACCTACTGTAAGGAGGCAACATGTAGGTCAGGCGCTGGTAAAAGCATTGATTGCGCAGGCCGCGCTTCGTTTTCAGTGCGTGCGTCTTTCCACTGACACCTCTGAAGGCGATGCGTTTTACCTGCGTTGCGG (double strand) [PSPPH4977] | binds | 
TACAAGGGGTAGGGCTGTGACTGTCAGAAAGGTCCTATGCCCCGACACCTGCACGGTATAGAACACGCCAAACATCACGGCCATACGCCACCATCCGCTCTCCCGAATGTTCAGCAAAAGTACAGATACATCCTGCTACAACAATCCTTGCGCAGAAACATTTGAGCGACTGGGCACTGCGTTCAGCGCCACTGCACCTGCGGATGATTCCGAGGAGGCAACATGTTCTTAAGGTATGGGGTATTGATCGCATCACTTGCGATAGCGTCA (double strand) [PSPPH1086] | binds | 
GGGAACAGTTTGCGTTTTTCAGCCAGCCTCACTCATTAGCTGGATAAGCAGACAGGCGTTCTTTCACTTGATTCCGGTACAAGTTCTCATAACGATTGAAAGCCTGCTGCATCGATTCATCTATCCATGTATAAATGCTGTTACACATTGGCCCATCTCTGGAGACTCAGCGCATGCGTTACGCGCTCGATCATAAGGCCCAAACCCATCAACGTATCGTCAAGGAAGCGTCCATGCGCTTTCGTCGCGATGGCATTGGTGCTACGGGCTTACAACCTT (double strand) [PSPPH3654] | binds | 
ATATTACCGCGCAAACCATCGACCAGGATTTTGCCCGCAACGGCAAGATTCACCGCGCCTGGAAAATCATGGCGCGTGCCTGATACGGTGTGTGATGAGCTTGCCTGTAACAGTTTTGTACAGGTTTGCTCATCGCTCCCTATGAAAATTACTGGCGAATAGCTATAACAGAAGTCATAGCCAGCTTGACGCTTCAGCATGTTGGCGTCATGAGTTTCTG (double strand) [rlmL] | binds | 
GCAGGAACCCCTCTCGTTATCGGGTTGTCGACAACAGACTGGCTGTTAAAACCTGTTCAGAGTGTGAACAGAGCCTGGACACCTGAATTTTCATTACGAGAGGTTGCC (double strand) [PSPTO_1489 promoter] |  | binding [4]: no binding
